Data from patent US20250043302A1, “MUTATED HYDROXYPHENYLPYRUVATE DIOXYGENASE POLYPEPTIDE, AND CODING GENE AND USE THEREOF” (BEIJING DABEINONG BIOTECHNOLOGY CO., LTD., priority 2021, published 2025).
Changes are numbered by the printed parent chain. Names and notes keep the numbering of the source.

B1: OsHPPD-02: nucleotide sequence encoding wild-type Oryza sativa HPPD; vector DBN11754 (nucleic acid)
DNA: ATGCCACCCACGCCAACACCAACGGCCACCACTGGTGCCGTCTCGGCCGCGGCAGCGGCCGGTGAGAATGCTGGTTTCAGGCTAGTCGGCCACCGCCGCTTCGTGAGGGCAAATCCAAGATCTGATCGGTTCCAAGCACTTGCTTTCCACCATGTTGAGCTGTGGTGCGCTGACGCCGCTTCAGCTGCCGGGAGGTTTGCTTTTGCTTTAGGGGCGCCGCTCGCCGCAAGGAGTGATCTTTCCACCGGAAATTCTGCTCATGCTTCTCTTCTACTTAGATCAGCAAGTGTTGCATTTCTGTTCACTGCACCTTATGGCGGAGACCATGGTGTCGGGGCCGATGCTGCAACAACAGCTAGCATACCATCATTTTCTCCCGGCGCCGCAAGAAGATTTGCAGCCGATCATGGCCTGGCAGTTCATGCTGTGGCATTGAGGGTCGCCGACGCGGCTGATGCGTTCCGCGCCAGCGTGGCTGCTGGAGCTAGGCCGGCGTTCCAGCCTGCTGACCTTGGGGGTGGATTTGGATTGGCGGAGGTTGAATTATATGGTGATGTTGTGCTCCGTTTTGTTTCCCATCCAGATGGTGCTGATGCTCCATTTCTACCTGGATTTGAAGGGGTGTCAAACCCCGGCGCGGTGGATTATGGACTGCGTCGATTTGATCACGTGGTAGGTAATGTTCCTGAGTTGGCTCCCGTGGCGGCCTACATTTCAGGCTTTACTGGCTTCCATGAATTTGCCGAGTTCACCGCGGAAGATGTGGGAACTGCTGAAAGTGGATTGAACTCTGTTGTCCTGGCGAACAATGCAGAGACTGTATTGCTCCCCTTGAATGAGCCTGTGCACGGCACCAAACGGCGATCTCAAATTCAGACATACCTCGACCACCACGGGGGCCCTGGTGTTCAGCATATTGCTCTAGCCAGCGACGACGTACTGGGAACACTGAGGGAGATGAGAGCCCGTTCCGCCATGGGTGGCTTTGAGTTTCTGGCCCCTCCGCCGCCAAACTACTACGACGGCGTCAGACGGCGGGCGGGTGACGTCTTGAGTGAGGAGCAGATCAATGAATGTCAAGAACTTGGGGTTCTTGTTGATAGAGATGATCAAGGAGTGCTCCTCCAAATATTCACAAAACCTGTTGGCGACCGCCCGACCTTCTTCCTTGAAATGATCCAAAGGATCGGCTGCATGGAGAAGGATGAATCGGGCCAGGAGTACCAGAAGGGTGGGTGTGGTGGCTTTGGGAAGGGCAACTTCAGCGAGCTGTTCAAGTCAATTGAAGAATATGAAAAATCATTGGAGGCAAAGCAAGCTCCGACGGTGCAGGGAAGCTGA
modifications: OsHPPD-02 Nucleotide Sequence
notes: vector DBN11754
B2: OsHPPDm-F372A-02: nucleotide sequence encoding Oryza sativa HPPD with F372A; vector DBN11755 (nucleic acid)
DNA: B1 DNA with T1132G, T1133C
modifications: OsHPPDm-F372A-02 Nucleotide Sequence
notes: vector DBN11755
B3: OsHPPDm-F372A-F383W-02: nucleotide sequence encoding Oryza sativa HPPD with F372A+F383W; vector DBN11757 (nucleic acid)
DNA: B1 DNA with T1132G, T1133C, T1166G, C1167G
modifications: OsHPPDm-F372A-F383W-02 Nucleotide Sequence
notes: vector DBN11757

System: Arabidopsis thaliana T1 plants
Experiment: Topramezone tolerance of transgenic Arabidopsis thaliana T1 plants (spray, bleached leaf area grade, damage score)
Type: in vivo
Details: number of plants; topramezone 25 g ai/ha (1×), 7 DAT; Table 4
In short: (§1)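 Damage was assessed by bleaching grade (0 none; 1 <50%; 2 >50%; 3 100% of leaf area) one week after spraying. Sprays on 18-day-old T1 and wild-type plants used field-rate multiples: topramezone 25–200, isoxaflutole 35–280, mesotrione 52.5–420 g ai/ha.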

Molecule | Classification and statistics of the grade of pesticide damage: Grade 0 | Classification and statistics of the grade of pesticide damage: Grade 1 | Classification and statistics of the grade of pesticide damage: Grade 2 | Classification and statistics of the grade of pesticide damage: Grade 3
B1 | 0 | 0 | 0 | 16
B2 | 8 | 8 | 0 | 0
B3 | 10 | 6 | 0 | 0

Same assay, conditions: number of plants; topramezone 100 g ai/ha (4×), 7 DAT; Table 4

Molecule | Classification and statistics of the grade of pesticide damage: Grade 0 | Classification and statistics of the grade of pesticide damage: Grade 1 | Classification and statistics of the grade of pesticide damage: Grade 2 | Classification and statistics of the grade of pesticide damage: Grade 3
B1 | 0 | 0 | 0 | 16
B2 | 0 | 0 | 0 | 16
B3 | 2 | 13 | 1 | 0

Same assay, conditions: pesticide damage score 0-100; topramezone 25 g ai/ha (1×), 7 DAT; Table 4

Molecule | Scores
B1 | 100
B2 | 17
B3 | 13

Same assay, conditions: pesticide damage score 0-100; topramezone 100 g ai/ha (4×), 7 DAT; Table 4

Molecule | Scores
B1 | 100
B2 | 100
B3 | 31

Same assay, conditions: topramezone 25 g ai/ha (1×), 7 DAT; Table 4

Molecule | Resistance evaluation
B1 | non-resistant (non-resistant plants (scores 68-100))
B2 | moderately
B3 | highly

Same assay, conditions: topramezone 100 g ai/ha (4×), 7 DAT; Table 4

Molecule | Resistance evaluation
B1 | non-resistant (non-resistant plants (scores 68-100))
B2 | non-resistant (non-resistant plants (scores 68-100))
B3 | moderately

System: Arabidopsis thaliana T1 plants
Experiment: Isoxaflutole tolerance of transgenic Arabidopsis thaliana T1 plants (spray, bleached leaf area grade, damage score)
Type: in vivo
Design: Scores (pesticide damage): scale not given here
Details: isoxaflutole 35 g ai/ha (0.5x field concentration), spray, Arabidopsis thaliana T1 plants
In short: as §1

Molecule | Resistance evaluation | Scores (pesticide damage)
B1 | Non-resistant | 100
B2 | Poorly | 52
B3 | Highly | 10

Same assay, conditions: isoxaflutole 35 g ai/ha (0.5x field concentration), spray, Arabidopsis thaliana T1 plants, 16 plants

Molecule | Classification and statistics of the grade of pesticide damage: Grade 0 (number of plants) | Classification and statistics of the grade of pesticide damage: Grade 1 (number of plants) | Classification and statistics of the grade of pesticide damage: Grade 2 (number of plants) | Classification and statistics of the grade of pesticide damage: Grade 3 (number of plants)
B1 | 0 | 0 | 0 | 16
B2 | 0 | 8 | 7 | 1
B3 | 11 | 5 | 0 | 0

Same assay, conditions: isoxaflutole 70 g ai/ha (1x field concentration), spray, Arabidopsis thaliana T1 plants

Molecule | Resistance evaluation | Scores (pesticide damage)
B1 | Non-resistant | 100
B2 | Non-resistant | 100
B3 | Highly | 15

Same assay, conditions: isoxaflutole 70 g ai/ha (1x field concentration), spray, Arabidopsis thaliana T1 plants, 16 plants

Molecule | Classification and statistics of the grade of pesticide damage: Grade 0 (number of plants) | Classification and statistics of the grade of pesticide damage: Grade 1 (number of plants) | Classification and statistics of the grade of pesticide damage: Grade 2 (number of plants) | Classification and statistics of the grade of pesticide damage: Grade 3 (number of plants)
B1 | 0 | 0 | 0 | 16
B2 | 0 | 0 | 0 | 16
B3 | 9 | 7 | 0 | 0

System: Arabidopsis thaliana T1 plants
Experiment: Mesotrione tolerance of transgenic Arabidopsis thaliana T1 plants (spray, bleached leaf area grade, damage score)
Type: in vivo
Design: Scores: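 damage score 0-100 computed as Σ(N×S)/(T×M)×100 over grades 0-3 with higher meaning more damage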
Details: mesotrione 52.5 g ai/ha; Arabidopsis thaliana T1 plants
In short: as §1

Molecule | Resistance evaluation | Scores
B1 | Non-resistant | 100
B2 | Poorly resistant | 63
B3 | Highly resistant | 15

Same assay, conditions: mesotrione 52.5 g ai/ha; Arabidopsis thaliana T1 plants; 16 plants

Molecule | Grade 0 (classification and statistics of the grade of pesticide damage; number of plants) | Grade 1 (classification and statistics of the grade of pesticide damage; number of plants) | Grade 2 (classification and statistics of the grade of pesticide damage; number of plants) | Grade 3 (classification and statistics of the grade of pesticide damage; number of plants)
B1 | 0 | 0 | 0 | 16
B2 | 0 | 5 | 8 | 3
B3 | 9 | 7 | 0 | 0

Same assay, conditions: mesotrione 105 g ai/ha; Arabidopsis thaliana T1 plants

Molecule | Resistance evaluation | Scores
B1 | Non-resistant | 100
B2 | Non-resistant | 100
B3 | Poorly resistant | 38

Same assay, conditions: mesotrione 105 g ai/ha; Arabidopsis thaliana T1 plants; 16 plants

Molecule | Grade 0 (classification and statistics of the grade of pesticide damage; number of plants) | Grade 1 (classification and statistics of the grade of pesticide damage; number of plants) | Grade 2 (classification and statistics of the grade of pesticide damage; number of plants) | Grade 3 (classification and statistics of the grade of pesticide damage; number of plants)
B1 | 0 | 0 | 0 | 16
B2 | 0 | 0 | 0 | 16
B3 | 0 | 14 | 2 | 0
